The record followed here is US20250270319A1 (Alector, published 2025).

Experiment [1] addresses T1, human CD33 on primary human dendritic cells (human, UniProt P20138 18-364).
T1 construct: Endogenous CD33 of monocyte-derived dendritic cells from healthy donors; also called Siglec-3
As to the kind of experiment: flow cytometry on primary human dendritic cells, antibody at 2 ug/mL, fluorescent anti-human IgG secondary. The procedure:
The 7 humanized anti-CD33 antibodies of 6C7 were evaluated for binding to primary dendritic cells by flow cytometry, and binding was compared to that of an anti-CD33 6C7 chimeric antibody that contained the variable heavy chain sequence and the variable light chain sequence of anti-CD33 antibody 6C7. Monocytes were isolated from blood from healthy human donors using the RosetteSep™ monocyte isolation antibody cocktail (StemCell Technologies). The isolated monocytes were differentiated into dendritic cells with 100 ng/mL GM-CSF and 100 ng/mL IL-4 (Peprotech). Dendritic cells were incubated with dilutions of the anti-CD33 antibodies for 30 minutes on ice in the dark, followed by a 30-minute incubation with a fluorescently-conjugated anti-human IgG secondary antibody. Cells were washed twice in FACS buffer (PBS+2% FBS, 2 mM EDTA), and flow cytometry was performed on a BD FACS Canto. Data were analyzed using FlowJo software (Ashland, OR).
The antibody variants were evaluated for binding to primary human dendritic cells, according to the method described in Example 1, at an antibody concentration of 2 μg/mL.

Experiment [2] has as its target T2, recombinant human CD33 protein (Sino Biologicals) (human, UniProt P20138 18-259).
T2 construct: Bought protein; also called recombinant CD33
Description: ELISA on recombinant CD33, relative binding, antibody concentration not given.

In experiment [3] the target is T1, human CD33 on primary human dendritic …. Description: cell-based or functional assay.
In experiment [4] the target is T3, recombinant cynomolgus CD33 protein (NovoProtein) (cynomolgus).
T3 construct: Bought protein; also called cyno CD33
As to the kind of experiment: ELISA, plate coated with recombinant CD33. In general terms: ELISA stands for enzyme-linked immunosorbent assay.

The target of experiment [5] is T2, recombinant human CD33 protein (Sino …). As to the kind of experiment: ELISA, plate coated with recombinant CD33.
Experiment [6] has as its target T3, recombinant cynomolgus CD33 protein …. Description: BLI (ForteBio). The procedure: (§1) Affinity parameters of the antibody variants for human CD33 were measured by BioLayer Interferometry in a ForteBio assay according to standard techniques (Estep et al. (2013) MAbs 5(2): 270-8) and were compared to those of the parental antibody (antibody 6C7H8) and the parental humanized antibody (antibody 6C71H5). Briefly, the antibodies were captured on anti-human Fc Biosensors (Pall ForteBio). Recombinant human CD33 (10 nM, Sino Biologicals) was then bound to the captured anti-CD33 surface (200 s association time, 1200 s dissociation time). Local fitting was used to extract association and dissociation rate constants (kₐ and kd, respectively) for each antibody. Apparent affinity constants (KD) were calculated from the ratio kd/kₐ.
(§2) The affinity parameters of anti-CD33 antibody 6C7H54 for human CD33 and cynomolgus CD33 were measured by BioLayer Interferometry in a ForteBio assay, according to the method described above.
(In general: In BLI a coated tip is dipped into the sample, and binding shifts an interference pattern.)

The target is the same in experiment [7]. Description: BLI (ForteBio), antibody on anti-human Fc sensor. The procedure: as §1, §2
Experiment [8] addresses T2, recombinant human CD33 protein (Sino …). As to the kind of experiment: BLI (ForteBio), antibody on anti-human Fc sensor. The procedure: as §1, §2
In experiment [9] the target is T1, human CD33 on primary human dendritic …. Description: cell-based or functional assay. This is another data set of the same source.

T2 sequence (P20138 18-259 limits assumed): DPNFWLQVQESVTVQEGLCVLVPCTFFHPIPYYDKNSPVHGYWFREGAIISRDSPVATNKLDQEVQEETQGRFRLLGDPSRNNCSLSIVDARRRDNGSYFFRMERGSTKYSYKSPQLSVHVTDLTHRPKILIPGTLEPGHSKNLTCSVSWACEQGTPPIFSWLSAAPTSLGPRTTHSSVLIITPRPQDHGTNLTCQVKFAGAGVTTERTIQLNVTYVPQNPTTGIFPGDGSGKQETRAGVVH
T3 sequence (chain, as listed by the source limits assumed): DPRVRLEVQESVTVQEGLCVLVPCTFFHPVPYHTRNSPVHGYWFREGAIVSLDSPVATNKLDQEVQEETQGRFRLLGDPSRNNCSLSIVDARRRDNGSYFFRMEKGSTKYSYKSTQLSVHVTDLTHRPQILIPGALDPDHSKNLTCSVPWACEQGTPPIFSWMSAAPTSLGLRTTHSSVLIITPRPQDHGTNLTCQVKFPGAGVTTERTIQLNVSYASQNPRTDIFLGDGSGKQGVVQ
T1 sequence (P20138 18-364): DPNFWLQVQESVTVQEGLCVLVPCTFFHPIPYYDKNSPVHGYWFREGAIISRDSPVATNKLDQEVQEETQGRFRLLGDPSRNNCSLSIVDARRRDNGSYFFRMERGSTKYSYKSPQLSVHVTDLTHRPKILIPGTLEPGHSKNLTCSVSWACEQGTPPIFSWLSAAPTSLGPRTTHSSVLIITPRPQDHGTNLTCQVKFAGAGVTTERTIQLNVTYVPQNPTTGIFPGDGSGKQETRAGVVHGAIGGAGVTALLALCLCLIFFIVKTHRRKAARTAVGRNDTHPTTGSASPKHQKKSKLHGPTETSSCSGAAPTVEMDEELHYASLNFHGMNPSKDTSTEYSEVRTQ

B1: anti-CD33 antibody 6C7H11 (antibody, V domains shown)
VH: EVQLVESGGGLVQPGGSLRLSCAASGFTFSEYAMNWVRQAPGKGLEWVGEIRLKSNNYVTNYAASVKGRFTISRDDSKNSVYLQMNSLKTEDTGVYYCTRAGYYVPFAYWGQGTLVTVSS
VL: QLVLTQSPSASASLGASVKLTCTLSSQHSTYTIEWYQQQPEKGPRYLMELKKGGSHSTGDGIPDRFSGSSSGAERYLTISSLQSEDEADYYCGVGDTIKEQFVYVFGGGTKLTVL
notes: VH/VL only
For the molecule B1, the binding result in experiment [1] and in experiment [2] was “binds” in each case.

B2: anti-CD33 antibody 6C7H54 (antibody, IgG1, V domains shown)
VH: EVQLVESGGGLVQPGGSLRLSCAGSGFTFSNYEMNWVRQAPGKGLEWVAEIRLKSNNYVTNYAASVKGRFTISRDDSKNSVYLQMNSLKTEDTGVYYCTRAGYYVPFAYWGQGTLVTVSS
VL: QLMLTQSPSASASLGASVKLTCTLSSQHSTYTIEWYQQQPGKGPRYLMELKKEGSHSTGDGIPDRFSGSSSGAERYLTISSLQSEDEADYYCGVGHTIKEQFVYVFGGGTKLTVL
notes: VH/VL only; also called 6C7H54 IgG1; 6C754
As a reminder, the EC50 is the concentration needed to bring the measured effect to its halfway point. Usually Kd stands for the constant that tells how readily two partners part at equilibrium. A word on the koff: it is a measure of how fast the partners let go of each other. The kon is the rate constant with which the complex forms. For the molecule B2, in [3], the “Maximal downregulation (% CD33 remaining)” value turned out to be 26.1 % CD33 remaining and the “Receptor downregulation, (pM, EC50)” value is 30.2 pM. For the same molecule, in experiment [4], the EC50 was determined as 0.57 nM, the “Relative maximal binding (cyno/human)” value was 0.73 and the “Relative potency (human/cyno)” value was 0.49. Further, the 50% effective concentration (EC50) in [5] came out at 0.28 nM. The “fold difference of binding affinity, cynomolgus CD33 against human CD33” value in experiment [6] was at most 3 fold. Also, in experiment [7], the Kd amounted to 0.178 nM, the koff was determined as 0.000105 s⁻¹ and the kon turned out to be 589000 M⁻¹ s⁻¹. In [8], the Kd came to 0.061 nM, the dissociation rate constant (koff) was found to be 3.32e-05 s⁻¹ and the kon was 545000 M⁻¹ s⁻¹. Moreover, in experiment [9], the “Fold increase in potency compared to 6C7H5” value worked out at 1.2 fold and the “Receptor downregulation, (EC50) (pM)” value came to 30.2 pM.
